Data published in patent publication US20220073643A1 (NANJING GENSCRIPT BIOTECH, published 2022).
Where a chain is given by its changes, count along the chain named. Where two headings read alike, the source gives them in different places.

B1: chimeric 246B5F2 (antibody, human IgG1, kappa, V domains shown)
VH: EVMLVESGGGLMKPGGSLKLSCAASEFTFSNYAMSWVRQTPEKRLEWVATISSGRSSTYYPDSVKGRFTISRDNAKNTLYLQMSSLRSEDTAMYYCAGLGRGNAMEYWGQGTSVTVSS
VL: DIVMTQSPSSLTVTAGEKVTLSCKSSQSLLNSGNQKNYLTWYQQKPGQPPKLLIYWASTRESGVPDRFTGSGSGTDFILTINSVQAEDLAVYYCQNAYSYPFTFGSGTKLEIKR
notes: chimeric, human IgG1/kappa constant regions; also called 246B5F2-Chimeric
B2: chimeric 273C10E5 (antibody, human IgG1, kappa, V domains shown)
VH: QVQLQQSGAELVKPGASVKLSCKASGYTFTSFGINWLRQRPEQGLEWIGWIFPGDGNSKYNENFKGKATLTTDKSSSTAYMQVTRLTSEDSAVYFCARFYYGNSFANWGQGTLVTVSA
VL: B1 VL with L21M, S58A, T69A, I78T, N82S, A97D, S99F, S106A, I112L
notes: chimeric, human IgG1/kappa constant regions
B3: chimeric 370E2B12C3 (antibody, human IgG1, kappa, V domains shown)
VH: QVQLKESGPGLVAPSQSLSITCTVSGFSLTTYGVHWVRQPPGKGLEWLGVIWAGGSTNYNSALMSRVSINKDNSKSQVFIKMNSLQADDTALYYCARAAYYGNGLDYWGQGTTLTVSS
VL: B1 VL with L21M, S28T, R60G, I78T, N82S, Y93F, S99F, S106G
notes: chimeric, human IgG1/kappa constant regions; also called 370E2B12C3-chimeric
B4: chimeric 417A6F11 (antibody, human IgG1, kappa, V domains shown)
VH: EVQLQQSGPELVKPGASMKISCKASGYSFTGYTMNWVKQSHGKNLEWIGLINPYNGGTSYNQKFKGKATLTVDKSSSTAYMELLSLTSEDSAVYYCARGDYWGQGTTLTVSS
VL: DIVMTQSPSSLTVTAGEKVTMSCKSSQSLLNSGNQKNYLTWYQQKPGQPPKLLIYWASTRESGVPDRFTGSGSGTDFTLTISSVQAEDLAVYYCQNDYSYPTFGAGTKLELKR
notes: as for B2
B5: chimeric 250F4G4 (antibody, human IgG1, kappa, V domains shown)
VH: QAYLQQSGAELVRSGASVKMSCKASGYTFTSHNMHWVKQTPGQGLEWIGYIYPGNGRTNYNQKFKGKATLTADTSSSTAYMQISSLTSEDSAVYFCTRDYYGNSFAYWGQGTLVTVSA
VL: DIVMTQSPSSLTEKVGERVSMSCKSSQSLFNSGNQKNYLTWYQQKPGQPPKLLIYWASTRESGVPDRFTGSGSGTDFTLTISSVQAEDLAVYYCQNDYWYPFTFGAGTKLELKR
notes: as for B2
B6: chimeric 252E7C9 (antibody, human IgG1, kappa, V domains shown)
VH: B5 VH with A2T, K23R, A24T, T28S, R57G, T58S, N59Y, T69I, A106V
VL: B5 VL with I2V, V15T, R18K, F30L, V84L, A86T, V91I, D97N, Y98F, W99R
notes: as for B2
B7: chimeric 232C5E3 (antibody, human IgG1, kappa, V domains shown)
VH: B5 VH with M34I, V37I, Q43K, R57G, G66A, T97A
VL: B5 VL with V3M, K14T, V15A, R18K, F30L, T69S, D97G, W99R, Y100F
notes: chimeric, human IgG1/kappa constant regions; also called 232C5E3-Chimeric
B8: chimeric 257G7B9 (antibody, human IgG1, kappa, V domains shown)
VH: B5 VH with M34L, R57N
VL: B5 VL with V15A, D97N, Y100F
notes: as for B2
B9: chimeric 260G9E8 (antibody, human IgG1, kappa, V domains shown)
VH: B5 VH with Y3D, T30A, R57G, N59K, K65T, S84T, T97A
VL: B5 VL with V15A, R18K, S22R, F30L, E87D, W99M, Y100F
notes: as for B2
B10: chimeric 257B1G9 (antibody, human IgG1, kappa, V domains shown)
VH: B5 VH with R57G
VL: B5 VL with K14R, V15A, W99R
notes: as for B2

Assays:
human Claudin18.2 [1] = target: T1, human Claudin18.2 (human); experiment: FACS, Claudin18.2-HEK293 cells
T1 construct: also called CLDN18.2
Method: (§1) The binding of chimeric antibodies to Claudin18.2 expressed on HEK293 cells was determine by FACS analysis. Briefly, HEK293 cells expressing human Claudin18.2 as prepared in the foregoing Example were harvested and incubated with anti-Claudin18.2 mAbs at 4° C. for 40 min, followed by fluorophore (iFluor 647)-labeled goat […] IgG (H+L) secondary antibodies at 4° C. for 0.5 hour. The samples were then analyzed by flow cytometry.
After initial screening of cell binding with transfected supernatants, the binding pattern of chimeric and up to 3 humanized antibodies on Claudin18.2 expressed on HEK293 cells were plotted with antibody in 3× serial dilutions, starting concentration of 45 μg/ml, following the protocol described in Example 3.

human Claudin18.2 [2] = target: T1, human Claudin18.2; experiment: cell-based or functional assay
human Claudin18.2 [3] = target: T1, human Claudin18.2; experiment: FACS, Claudin18.2-HEK293 cells; remark: listed apart in the source
Method: as §1

human Claudin18.2 [4] = target: T1, human Claudin18.2; experiment: cell-based or functional assay; remark: listed apart in the source
human Claudin18.2 [5] = target: T1, human Claudin18.2; experiment: FACS, Claudin18.2-HEK293 cells; remark: listed apart in the source
Method: as §1

Row | Binder | EC50 (human Claudin18.2 [1]) [µg/mL] | Span (human Claudin18.2 [1]) | ADCC % Relative activity (human Claudin18.2 [2]) [%] | ADCC EC50 (human Claudin18.2 [2]) [µg/mL] | EC50 (human Claudin18.2 [3]) [nM] | CDC % Relative activity (human Claudin18.2 [4]) [%] | CDC EC50 (human Claudin18.2 [4]) [µg/mL] | EC50 (human Claudin18.2 [5]) [nM]
1 | B1 | 0.192 | 12400 | 157 | 0.023 | 1.24 | 985 | 0.274 | –
2 | B2 | – | – | 92.1 | 0.0275 | 1.01 | 854 | 0.269 | –
3 | B3 | 0.772 | 4570 | 75.7 | 0.0335 | 0.792 | 1200 | 0.192 | –
4 | B4 | – | – | – | – | – | – | – | 2.48
5 | B5 | – | – | 109 | 0.0281 | 1.02 | 875 | 0.309 | –
6 | B6 | – | – | 98.7 | 0.0311 | 0.331 | 991 | 0.272 | –
7 | B7 | 0.317 | 69700 | 452 | 0.00782 | 1.05 | 2130 | 0.0994 | –
8 | B8 | – | – | 55.8 | 0.0556 | 0.742 | 760 | 0.302 | –
9 | B9 | – | – | 104 | 0.024 | 1.05 | 684 | 0.336 | –
10 | B10 | – | – | 68.2 | 0.0454 | 1.17 | 642 | 0.358 | –
